# Assay results taken from patent US20240279315A1 (priority 2023, published 2024).
# Tested on: influenza A/Anhui/1/2013 (H7N9) virus
# Experiment: not given
# Parameters: species or system BALB/c mice
# Conditions: mouse, in vivo
row,Compound,protection from challenge (body weight)
1,CCOC(=O)C1=C[C@@H](OC(CC)CC)[C@H](NC(C)=O)[C@@H](N)C1 [oseltamivir],did show protection from challenge

# Biological target: hemagglutinin (HA) of influenza B/Phuket/3073/2013 B-Yam (influenza B virus B/Phuket/3073/2013)
# Experiment: cell-based or functional assay
# Conditions: not given
row,Compound,HAI titer
1,SAB-176 Lot 6 (PD2204315QR) (antibody),160 titer
2,SAB-176 Lot 1 (PD1901102QR) (antibody),160 titer
3,SAB-176 Lot 5 (PD2203294QR) (antibody),80 titer

# Biological target: hemagglutinin (HA) of influenza A/Kansas/14/2017 H3N2 (influenza A virus A/Kansas/14/2017 (H3N2))
# Experiment: cell-based or functional assay
# Conditions: not given
row,Compound,HAI titer
1,SAB-176 Lot 6 (PD2204315QR) (antibody),320 titer
2,SAB-176 Lot 1 (PD1901102QR) (antibody),40 titer
3,SAB-176 Lot 5 (PD2203294QR) (antibody),320 titer

# Biological target: hemagglutinin (HA) of influenza B/Colorado/06/2017 B-Vic (influenza B virus B/Colorado/06/2017)
# Experiment: cell-based or functional assay
# Conditions: not given
row,Compound,HAI titer
1,SAB-176 Lot 6 (PD2204315QR) (antibody),160 titer
2,SAB-176 Lot 1 (PD1901102QR) (antibody),160 titer
3,SAB-176 Lot 5 (PD2203294QR) (antibody),160 titer

# Biological target: hemagglutinin (HA) of influenza A/Tasmania/503/2020 (H3N2) (influenza A virus A/Tasmania/503/2020 (H3N2))
# Experiment: cell-based or functional assay
# Conditions: not given
row,Compound,HAI titer
1,SAB-176 Lot 6 (PD2204315QR) (antibody),640 titer
2,SAB-176 Lot 1 (PD1901102QR) (antibody),40 titer
3,SAB-176 Lot 5 (PD2203294QR) (antibody),640 titer

# Biological target: hemagglutinin (HA) of influenza A/Wisconsin/588/2019 (influenza A virus A/Wisconsin/588/2019)
# Experiment: cell-based or functional assay
# Conditions: not given
row,Compound,HAI titer
1,SAB-176 Lot 6 (PD2204315QR) (antibody),1280 titer
2,SAB-176 Lot 1 (PD1901102QR) (antibody),320 titer
3,SAB-176 Lot 5 (PD2203294QR) (antibody),1280 titer

# Biological target: hemagglutinin (HA) of influenza A/Sydney/5/2021 (influenza A virus A/Sydney/5/2021)
# Experiment: cell-based or functional assay
# Conditions: not given
row,Compound,HAI titer
1,SAB-176 Lot 6 (PD2204315QR) (antibody),1280 titer
2,SAB-176 Lot 1 (PD1901102QR) (antibody),320 titer
3,SAB-176 Lot 5 (PD2203294QR) (antibody),1280 titer

# Biological target: hemagglutinin (HA) of influenza A/Singapore/INFIMH-16-0019/2016 H3N2 (influenza A virus A/Singapore/INFIMH-16-0019/2016 (H3N2))
# Experiment: cell-based or functional assay
# Conditions: not given
row,Compound,HAI titer
1,SAB-176 Lot 6 (PD2204315QR) (antibody),320 titer
2,SAB-176 Lot 1 (PD1901102QR) (antibody),320 titer
3,SAB-176 Lot 5 (PD2203294QR) (antibody),320 titer

# Biological target: hemagglutinin (HA) of influenza B/Austria/1359417/2021 (influenza B virus B/Austria/1359417/2021)
# Experiment: cell-based or functional assay
# Conditions: not given
row,Compound,HAI titer
1,SAB-176 Lot 6 (PD2204315QR) (antibody),40 titer
2,SAB-176 Lot 1 (PD1901102QR) (antibody),28 titer
3,SAB-176 Lot 5 (PD2203294QR) (antibody),40 titer

# Biological target: hemagglutinin (HA) of influenza B/Washington/02/2019 B-Vic (influenza B virus B/Washington/02/2019)
# Experiment: cell-based or functional assay
# Conditions: not given
row,Compound,HAI titer
1,SAB-176 Lot 6 (PD2204315QR) (antibody),320 titer
2,SAB-176 Lot 1 (PD1901102QR) (antibody),160 titer
3,SAB-176 Lot 5 (PD2203294QR) (antibody),320 titer

# Biological target: hemagglutinin (HA) of influenza A/Brisbane/02/2018 H1N1 (influenza A virus A/Brisbane/02/2018 (H1N1))
# Experiment: cell-based or functional assay
# Conditions: not given
row,Compound,HAI titer
1,SAB-176 Lot 6 (PD2204315QR) (antibody),1280 titer
2,SAB-176 Lot 1 (PD1901102QR) (antibody),1280 titer
3,SAB-176 Lot 5 (PD2203294QR) (antibody),1280 titer

# Biological target: hemagglutinin (HA) of influenza A/Hawaii/70/2019 (influenza A virus A/Hawaii/70/2019)
# Experiment: cell-based or functional assay
# Conditions: not given
row,Compound,HAI titer
1,SAB-176 Lot 6 (PD2204315QR) (antibody),1810 titer
2,SAB-176 Lot 1 (PD1901102QR) (antibody),1280 titer
3,SAB-176 Lot 5 (PD2203294QR) (antibody),1810 titer

# Biological target: hemagglutinin (HA) of influenza A/Darwin/6/2021 (influenza A virus A/Darwin/6/2021)
# Experiment: cell-based or functional assay
# Conditions: not given
row,Compound,HAI titer
1,SAB-176 Lot 6 (PD2204315QR) (antibody),160 titer
2,SAB-176 Lot 1 (PD1901102QR) (antibody),113 titer
3,SAB-176 Lot 5 (PD2203294QR) (antibody),320 titer

# Biological target: hemagglutinin (HA) of influenza A/Hong Kong/45/2019 H3N2 (influenza A virus A/Hong Kong/45/2019 (H3N2))
# Experiment: cell-based or functional assay
# Conditions: not given
Compound,HAI titer,HAI titer ratio of SAB-176 to hIVIG
SAB-176 Lot 1 (PD1901102QR) (antibody),64 titer,4 to 8 X

# Biological target: hemagglutinin (HA) of influenza A/Victoria/2570/2019 H1N1 (influenza A virus A/Victoria/2570/2019 (H1N1))
# Experiment: cell-based or functional assay
# Conditions: not given
Compound,HAI titer,HAI titer ratio of SAB-176 to hIVIG
SAB-176 Lot 1 (PD1901102QR) (antibody),256 titer,16 to 32 X

# Biological target: hemagglutinin (HA) of influenza A/Brisbane/02/2018 H1N1 (influenza A virus A/Brisbane/02/2018 (H1N1))
# Experiment: cell-based or functional assay
# Conditions: not given
# Remark: another data set of the same source
Compound,HAI titer,HAI titer ratio of SAB-176 to hIVIG
SAB-176 Lot 1 (PD1901102QR) (antibody),512 titer,16 to 32 X

# Biological target: hemagglutinin (HA) of influenza B/Phuket/3073/2013 B-Yam (influenza B virus B/Phuket/3073/2013)
# Experiment: cell-based or functional assay
# Conditions: not given
# Remark: another data set of the same source
Compound,HAI titer of drug substance,HAI titer,HAI titer of drug product,HAI titer ratio of SAB-176 to hIVIG
SAB-176 Lot 6 (PD2204315QR) (antibody),1920 titer,–,–,–
SAB-176 Lot 1 (PD1901102QR) (antibody),–,128 titer,1920 titer,16 X
SAB-176 Lot 5 (PD2203294QR) (antibody),1920 titer,–,–,–

# Biological target: hemagglutinin (HA) of influenza A/Kansas/14/2017 H3N2 (influenza A virus A/Kansas/14/2017 (H3N2))
# Experiment: cell-based or functional assay
# Conditions: not given
# Remark: another data set of the same source
Compound,HAI titer,HAI titer ratio of SAB-176 to hIVIG
SAB-176 Lot 1 (PD1901102QR) (antibody),64 titer,2 to 16 X

# Biological target: hemagglutinin (HA) of influenza A/Cambodia/e0826360/2020 H3N2 (influenza A virus A/Cambodia/e0826360/2020 (H3N2))
# Experiment: cell-based or functional assay
# Conditions: not given
Compound,HAI titer of drug substance,HAI titer,HAI titer ratio of SAB-176 to hIVIG
SAB-176 Lot 6 (PD2204315QR) (antibody),7680 titer,–,–
SAB-176 Lot 1 (PD1901102QR) (antibody),–,128 titer,4 to 8 X
SAB-176 Lot 5 (PD2203294QR) (antibody),3840 titer,–,–

# Biological target: hemagglutinin (HA) of influenza B/Colorado/06/2017 B-Vic (influenza B virus B/Colorado/06/2017)
# Experiment: cell-based or functional assay
# Conditions: not given
# Remark: another data set of the same source
Compound,HAI titer,HAI titer ratio of SAB-176 to hIVIG
SAB-176 Lot 1 (PD1901102QR) (antibody),256 titer,16 to 32 X

# Biological target: hemagglutinin (HA) of influenza B/Maryland/15/2016 B-Vic (influenza B virus B/Maryland/15/2016)
# Experiment: cell-based or functional assay
# Conditions: not given
Compound,HAI titer,HAI titer of drug product,HAI titer ratio of SAB-176 to hIVIG
SAB-176 Lot 1 (PD1901102QR) (antibody),256 titer,3840 titer,16 to 32 X

# Biological target: hemagglutinin (HA) of influenza A/Singapore/INFIMH-16-0019/2016 H3N2 (influenza A virus A/Singapore/INFIMH-16-0019/2016 (H3N2))
# Experiment: cell-based or functional assay
# Conditions: not given
# Remark: another data set of the same source
Compound,HAI titer,HAI titer of drug product,HAI titer ratio of SAB-176 to hIVIG
SAB-176 Lot 1 (PD1901102QR) (antibody),512 titer,7680 titer,8 to 32 X

# Biological target: hemagglutinin (HA) of influenza A/Victoria/2570/2019 H1N1 (influenza A virus A/Victoria/2570/2019 (H1N1))
# Experiment: cell-based or functional assay
# Conditions: not given
# Remark: another data set of the same source
row,Compound,HAI titer of drug substance
1,SAB-176 Lot 6 (PD2204315QR) (antibody),7680 titer
2,SAB-176 Lot 5 (PD2203294QR) (antibody),7680 titer

# Biological target: hemagglutinin (HA) of influenza B/Washington/02/2019 B-Vic (influenza B virus B/Washington/02/2019)
# Experiment: cell-based or functional assay
# Conditions: not given
# Remark: another data set of the same source
Compound,HAI titer of drug substance,HAI titer,HAI titer ratio of SAB-176 to hIVIG
SAB-176 Lot 6 (PD2204315QR) (antibody),3840 titer,–,–
SAB-176 Lot 1 (PD1901102QR) (antibody),–,64 titer,8 to 16 X
SAB-176 Lot 5 (PD2203294QR) (antibody),3840 titer,–,–

# Biological target: hemagglutinin (HA) of influenza B/California/12/2015 B-Yam (influenza B virus B/California/12/2015)
# Experiment: cell-based or functional assay
# Conditions: not given
Compound,HAI titer,HAI titer ratio of SAB-176 to hIVIG
SAB-176 Lot 1 (PD1901102QR) (antibody),128 titer,16 to 32 X
